From a protein production outcome set (Wang et al. 2014) come the findings set out here.

The nature of this series: label from the status in PepcDB records.
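Further: failed if final PepcDB status was selected cloned or expressed and not failed if soluble or beyond.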

Regarding “MYLTCRFEESKSAEKAVVALEESTSGEPKTPTESHEKLRKVRSDQGSSTTSSNQENIGSSSVSFRNQVLQSTVTNQKQDSPIPVESNREKAASKEVEAGSQSTNEGIAGQSSSTEKPKEEESAKQRWSRSQREAALMKFRLKRKDRCFDKKHLKQIQDQTDSMEMYKNGLQVRYQSRKKLAEQRPRVKGQFVRTVNSDASTKS”, the protein production entry was “failed”.
Take “MYLTLTIAAMPAYNEAHVIAEVILGCKKYVDNVIVVDDGSSDNTAEVARSAGGYVVKHEVNKGYGAALKSCFKLAREFNADVMIIMDSDGQHNPDEIPRLLEPLKHGADLVIGSRFINGNGKNVPAYRKVGMKILDIATYLAGGILVTDSQSGFRAYGKKAIENVRFDGNNMSAGSEILLYIKDHNLKFTEVEIHCRYDLDQCSSQNPFLHGMEVAFQILKNMGFRRPLYYFTVPGILLIAAGLLIEIAFLHLVGSFGFGVISLIFLMILTGIFMVFTGVILHLVSKMISQIVPGQKGTESLNDGF”: the protein production entry is “failed”.
To “MYLTREEERILAGEEGEARAKALEVIVKVGEAVGAERLIPIKHAHVSGASYMTIGDAGLRFLARLAESGARFSVPTTVNPVSYDVEEPGAIPMTRLSPRIVKAQSEILKALEAMGADLILTCTPYYTEVPRRVGLREGDSVAWGESSAVAYANSVLGIHTNREGGPLALMAGIAGRTYFYGAHDPEWRKPRVAYRLETPKVLDETEAGVLGEVIATQHRDEHPPLLDAPLGGEAALKEFSAAVGSAGSLAMVHITGVTPGDPGDMIEEVVTMDYGDLARRMEDLAPGFEPDILYVGCPHASIEELRRLYRALSKAGERAGRRTVVSISRSLYLQALREGLVEKLKGLGVRFVRDSCLIVSPFSSGARGVRVATNSYKAYFYLSKKGVEVGLAPIEALPKLVS” belongs “failed”; to “MYLTVTPLSIVALTTAPPYFDTNGSISVPPPPNVIRSGLYESITLEYHKYTIKYCLTLITQTILFFLIVVCSMKVVIFGGTGLIGRAIYSSLPHDFYIVSRSAKGQEGQAHIIGLDEIDKIKECDVVINLSGYSIASKRWNRKVKEEIVRSRIDTTRLVVNFIRNLEKKPSAFLSGSAIGFYGHNTNKELTEEDPFGSGFLADLARSWEEEAMQADGICRTVLLRTANFLSPKGGFLSALINPKSKNVMYFGDGRQPVSWMHYADYVKAVEFVIENASIAGPVNMSSPQPVTFKEFAEAFSKSLGSHIRSIPEFLGKIALGSEMYRELMSGQKVIPKKLIQAGFKFDFPDINTAASSIASLMK”, “failed”.
To “MYMILELLNIIGIIAFTISGSLKGTNKGLDIFGVVTLGVITSYAGGIIADILLGIYPPQILKELNYLLLSVGISIFVFYFYKWLQTNPIKMIIAISDAVGLSTFATLGASLAYSYGLNPISVGLIAAIVGTGGGVIRDVLVNEIPMVLTKEIYATAALLSGFIYYFTTPYLHHDSLFVAFLGSFLLRILSIKYNFNLPKREDNKS” belongs “failed”; to “MYMKHIENGTRIEGEYIKNKVIQYNMSILTDEVKQPMEEVSLVVKNEEGKIFGGVTGTMYFYHLHIDFLWVDESVRHDGYGSQLLHEIEGIAKEKGCRLILLDSFSFQAPEFYKKHGYREYGVVEDHPKGHSQHFFEKRL”, “not failed”.
As to “MYNPVGVAAIGLGRWAYVMADAYTKSEKLKLVTCYSRTEDKREKFGKRYNCAGDATMEALLAREDVEMVIITVPNDKHAEVIEQCARSGKHIYVEKPISVSLDHAQRIDQVIKETGVKFLCGHSSRRLGALRKMKEMIDTKEIGEVSSIEAVFSNERGLELKKGNWRGEPATAPGGPLTQLGVHQIDNLQFLLGPVARVFNFGKPMYTEVENITVNQTLLEFEDGKQAYLGTNWACPGVFSINVYGTKANLFYQLDFSWWSNSDVTDEHSTLIKREFASMSDDPDNRILRDVKVDFESVDHLRVEVEEVADVIRNGGETEIGAEASLRNLAVVLAAVKSVHEKRPVEIAEIIG”, the protein production result is reported as “not failed”.
Consider “MYNRPNWQRRRRSLLVLVLGLLFLGFLIQPSYQWTKTNVAAMAGRHDSQMSPIIMIPGSSATQNRFDTLVKQLNKADHRRHSLIKLTVMTDDTIKMTGSLRARDNEPIIVVGFQNNRDGYDNIKHQARWFSLAFKKLAAKYQFNNFKAIGHSNGGLIYTYYFEHYFNRDDIKVKRIMTIGSPYNFSEANLNHKTQMLADFIKYRDRLPKSATMYSVAGTENYDSDGLVPARSVEAGKYIYQGQVKHFTEITVTGTNAQHSDLPQNAQIVTLIRTYMLDKPKQTRKGLVSTGTVE”, for which the protein production entry was “failed”.
For the sequence “MYNSATVIYQNLLKSTPKKASEYYYYLGDICWRKEKTDSAKYYFMEGIKTDETYAMNYVGIGIITMKSNATEGQRSFDKALQMTSQKNSQVLNAIGEYYILEADKAELPKGIALLKKSTEIDAKNAMSWILLGDAYGKQAEGSKQAESYGKAANLFHSVPLLKMKYGKMYAAARNKDLSIKYYNEGLAADPTYGPIYRELGDLYNRFRQYDLAIQNYKKYLTYIDSNDDVEFRYADFLFKNNNYAEAIEVFNKLEAKKYNSPYIYNRRAVCYYELAKYDLAQKDIETYFSKVNATKAKSADFEYYGKILMKKGQDSLAIQQYQAAVDRDTTRLDMYGQIGSYFYNKGNFPLAIQYMSKQIRPTTTDPKVFYELGQAYYYNKEYVKADSSFVKVLELKPNIYIGYLWRARANAAQDPDTKQGLAKPYYEKLIEVCAPGGAKYKDELIEANEYIAYYYTINRDKVKADAAWKNILALDPTNKKAIDGLKMK”, the protein production entry is on record as “failed”.
Take “MYPDLVHLGGADKYFEEILEIVNKIKLFGDFSNEEVRYLCSYMQCYAAPRDCQLLTEGDPGDYLLLILTGEVNVIKDIPNKGIQTIAKVGAGAIIGEMSMIDGMPRSASCVASLPTDFAVLSRDALYQLLANMPKLGNKVLIRLLQLLTARFRESYDRILPKTLGELI”: the protein production result was “not failed”.
Regarding “MYPLAFAKEGEEVIVKKIDAGCGAMQRLVSMGINIGSKLKVIRNQNGPVIISTKGSNIAIGRGLAMKIMVEDAEYGGENEKLLEHHHHHH”, the protein production entry is on record as “failed”.
Regarding “MYRNDPILPTFALILAAGLFYAAYLDGRHIARLLGHVPEELSVGQIGLMAFGAVLLLYGLMGLVSYWLEGIELRPGRHFPTPSTAPVAAGVILVLLLTALSGFFVRLLVYSAQTGHNPTWLQGLIFGSISLVVAALFGIYRRFFGREEVITEEEKSEFPW”, the protein production result is recorded as “failed”.
In the case of “MYSDKKNILQLVALLKAHGVRKIVLCPGSRNAAIVHTLANIEDFTCYSVTDERSAGFFAIGLSLQGGGPAAVCCTSGSALLNLHPAVAEAFYQQVPLIVISADRPAAWIGQMDGQTLPQPHVFGTLVKMSVNLPEVHTEEDEWFCNRLINEAILETTHHGKGPVHINVPISEPIYRFTAKTLPEVRVITRYQGL”, the protein production result is “failed”.
“MYTECAYITVINNKARLFFMNMKTSFIAAAVALATVYSFSVSAVQKDITVTANIDSTLELLQADGSSLPSTMKLDFMPGKGLVHKSLQTRLYSNDQTKSVNVKLLNAPQLINVLDPTKTIDMEVTLGGRSLTTTNSVLEAKTLFPDGKTGDASALLNLDIGQKAGAALQNLPAGEYSGLVSLVISQAVTAGLEHHHHHH”: the protein production entry is listed as “failed”.
In the case of “MYTKQHTIKAPVKVSGVGLHTGAQVNLTFVPAPINHGILFKRVDLPDQPVVECDVDNVVDVSRGTSIEKNGARINTVEHALAALVGLQIDNILIELDGPEIPIMDGSSLPFIEAINAIGLEEQNALRNFFEVPHGIFFQDAEKNIELAALPLDDYRVTVMVDYNSPVLGSQHATLNNINQFEKEIASCRTFCFLHELEMLHKQNLIKGGDLNNAIVIVDRIVKDDELDSLAKLFGKDKVEVKKEGILNNIELRYKNEPARHKLLDVVGDLALVGRPLKAQIMAARPGHASNVAFAKKLKRVMMDSRQKAPHYDITQPSVLDVNQIYKLLPHRYPFKLVDKIVHLDENMIIGVKNVTINEPFFEGHFPGNPVMPGVLQIEAMAQTGGIFVMQSVPDPENYWTYFLSIESAKFRRMVVPGDTLVFKCELTAPIKRGIAKMQGQAYVGGNLVCEASLTASIVKKK”, the protein production entry was “failed”.
